# Publication PMC7022315
# Target: Stx2k B-subunit (of the Stx2kE167Q toxoid) (Escherichia coli)
# Test: crystal structure
substance,measurement,value
Stx2k B-subunit (of the Stx2kE167Q toxoid) (natural protein),stoichiometry N,5
